Experimental data: ChEMBL document CHEMBL1138864, “Synthesis of novel caspase inhibitors for characterization of the active caspase proteome in vitro and in vivo” (J Med Chem, 2006)

Columns and labels:
Settings in all cases: Homo sapiens
[1] = substrate: Cc1cccc(C)c1C(=O)OCC(=O)[C@H](CC(=O)O)NC(=O)[C@H](CCCCNC(=O)CCCCCNC(=O)CCCCC1SC[C@@H]2NC(=O)N[C@H]12)NC(=O)[C@H](CCC(=O)O)NC(=O)OCc1ccccc1
Description: Inhibition of human caspase 4

[2] = substrate: Cc1cccc(C)c1C(=O)OCC(=O)[C@H](CC(=O)O)NC(=O)[C@H](CCCCNC(=O)CCCCCNC(=O)CCCCC1SC[C@@H]2NC(=O)N[C@H]12)NC(=O)[C@H](CCC(=O)O)NC(=O)OCc1ccccc1; remark: listed apart in the source
Description: Inhibition of human caspase 1

[3] = substrate: Cc1cccc(C)c1C(=O)OCC(=O)[C@H](CC(=O)O)NC(=O)[C@H](CCCCNC(=O)CCCCCNC(=O)CCCCC1SC[C@@H]2NC(=O)N[C@H]12)NC(=O)[C@H](CCC(=O)O)NC(=O)OCc1ccccc1; remark: listed apart in the source
Description: Inhibition of human caspase 3

[4] = substrate: Cc1cccc(C)c1C(=O)OCC(=O)[C@H](CC(=O)O)NC(=O)[C@H](CCCCNC(=O)CCCCCNC(=O)CCCCC1SC[C@@H]2NC(=O)N[C@H]12)NC(=O)[C@H](CCC(=O)O)NC(=O)OCc1ccccc1; remark: listed apart in the source
Description: Inhibition of human caspase 7

[5] = substrate: Cc1cccc(C)c1C(=O)OCC(=O)[C@H](CC(=O)O)NC(=O)[C@H](CCCCNC(=O)CCCCCNC(=O)CCCCC1SC[C@@H]2NC(=O)N[C@H]12)NC(=O)[C@H](CCC(=O)O)NC(=O)OCc1ccccc1; remark: listed apart in the source
Description: Inhibition of human caspase 2

[6] = substrate: Cc1cccc(C)c1C(=O)OCC(=O)[C@H](CC(=O)O)NC(=O)[C@H](CCCCNC(=O)CCCCCNC(=O)CCCCC1SC[C@@H]2NC(=O)N[C@H]12)NC(=O)[C@H](CCC(=O)O)NC(=O)OCc1ccccc1; remark: listed apart in the source
Description: Inhibition of human caspase 6

[7] = substrate: Cc1cccc(C)c1C(=O)OCC(=O)[C@H](CC(=O)O)NC(=O)[C@H](CCCCNC(=O)CCCCCNC(=O)CCCCC1SC[C@@H]2NC(=O)N[C@H]12)NC(=O)[C@H](CCC(=O)O)NC(=O)OCc1ccccc1; remark: listed apart in the source
Description: Inhibition of human caspase 5

[8] = substrate: Cc1cccc(C)c1C(=O)OCC(=O)[C@H](CC(=O)O)NC(=O)[C@H](CCCCNC(=O)CCCCCNC(=O)CCCCC1SC[C@@H]2NC(=O)N[C@H]12)NC(=O)[C@H](CCC(=O)O)NC(=O)OCc1ccccc1; remark: listed apart in the source
Description: Inhibition of human caspase 8

B1: Caspase-4 (Homo sapiens), P49662 (protein)
chain: MAEGNHRKKPLKVLESLGKDFLTGVLDNLVEQNVLNWKEEEKKKYYDAKTEDKVRVMADSMQEKQRMAGQMLLQTFFNIDQISPNKKAHPNMEAGPPESGESTDALKLCPHEEFLRLCKERAEEIYPIKERNNRTRLALIICNTEFDHLPPRNGADFDITGMKELLEGLDYSVDVEENLTARDMESALRAFATRPEHKSSDSTFLVLMSHGILEGICGTVHDEKKPDVLLYDTIFQIFNNRNCLSLKDKPKVIIVQACRGANRGELWVRDSPASLEVASSQSSENLEEDAVYKTHVEKDFIAFCSSTPHNVSWRDSTMGSIFITQLITCFQKYSWCCHLEEVFRKVQQSFETPRAKAQMPTIERLSMTRYFYLFPGN
Which Km [1] does the source give for B1 here?
The Km was 1100 µM.

B2: Caspase-1 (Homo sapiens), P29466 (protein)
chain: MADKVLKEKRKLFIRSMGEGTINGLLDELLQTRVLNKEEMEKVKRENATVMDKTRALIDSVIPKGAQACQICITYICEEDSYLAGTLGLSADQTSGNYLNMQDSQGVLSSFPAPQAVQDNPAMPTSSGSEGNVKLCSLEEAQRIWKQKSAEIYPIMDKSSRTRLALIICNEEFDSIPRRTGAEVDITGMTMLLQNLGYSVDVKKNLTASDMTTELEAFAHRPEHKTSDSTFLVFMSHGIREGICGKKHSEQVPDILQLNAIFNMLNTKNCPSLKDKPKVIIIQACRGDSPGVVWFKDSVGVSGNLSLPTTEEFEDDAIKKAHIEKDFIAFCSSTPDNVSWRHPTMGSVFIGRLIEHMQEYACSCDVEEIFRKVRFSFEQPDGRAQMPTTERVTLTRCFYLFPGH
With B2 as the protein, how does the Km [2] read?
Its Km is 100 µM.

B3: Caspase-3 (Homo sapiens), P42574 (protein)
chain: MENTENSVDSKSIKNLEPKIIHGSESMDSGISLDNSYKMDYPEMGLCIIINNKNFHKSTGMTSRSGTDVDAANLRETFRNLKYEVRNKNDLTREEIVELMRDVSKEDHSKRSSFVCVLLSHGEEGIIFGTNGPVDLKKITNFFRGDRCRSLTGKPKLFIIQACRGTELDCGIETDSGVDDDMACHKIPVEADFLYAYSTAPGYYSWRNSKDGSWFIQSLCAMLKQYADKLEFMHILTRVNRKVATEFESFSFDATFHAKKQIPCIVSMLTKELYFYH
Which Km [3] does the source give for B3 here?
The Km was 74 µM.

B4: Caspase-7 (Homo sapiens), P55210 (protein)
chain: MADDQGCIEEQGVEDSANEDSVDAKPDRSSFVPSLFSKKKKNVTMRSIKTTRDRVPTYQYNMNFEKLGKCIIINNKNFDKVTGMGVRNGTDKDAEALFKCFRSLGFDVIVYNDCSCAKMQDLLKKASEEDHTNAACFACILLSHGEENVIYGKDGVTPIKDLTAHFRGDRCKTLLEKPKLFFIQACRGTELDDGIQADSGPINDTDANPRYKIPVEADFLFAYSTVPGYYSWRSPGRGSWFVQALCSILEEHGKDLEIMQILTRVNDRVARHFESQSDDPHFHEKKQIPCVVSMLTKELYFSQ
With B4 as the protein, how does the Km [4] read?
Its Km is 230 µM.

B5: Caspase-2 (Homo sapiens), P42575 (protein)
chain: MAAPSAGSWSTFQHKELMAADRGRRILGVCGMHPHHQETLKKNRVVLAKQLLLSELLEHLLEKDIITLEMRELIQAKVGSFSQNVELLNLLPKRGPQAFDAFCEALRETKQGHLEDMLLTTLSGLQHVLPPLSCDYDLSLPFPVCESCPLYKKLRLSTDTVEHSLDNKDGPVCLQVKPCTPEFYQTHFQLAYRLQSRPRGLALVLSNVHFTGEKELEFRSGGDVDHSTLVTLFKLLGYDVHVLCDQTAQEMQEKLQNFAQLPAHRVTDSCIVALLSHGVEGAIYGVDGKLLQLQEVFQLFDNANCPSLQNKPKMFFIQACRGDETDRGVDQQDGKNHAGSPGCEESDAGKEKLPKMRLPTRSDMICGYACLKGTAAMRNTKRGSWYIEALAQVFSERACDMHVADMLVKVNALIKDREGYAPGTEFHRCKEMSEYCSTLCRHLYLFPGHPPT
With B5 as the protein, how does the Km [5] read?
Its Km is 560 µM.

B6: Caspase-6 (Homo sapiens), P55212 (protein)
chain: MSSASGLRRGHPAGGEENMTETDAFYKREMFDPAEKYKMDHRRRGIALIFNHERFFWHLTLPERRGTCADRDNLTRRFSDLGFEVKCFNDLKAEELLLKIHEVSTVSHADADCFVCVFLSHGEGNHIYAYDAKIEIQTLTGLFKGDKCHSLVGKPKIFIIQACRGNQHDVPVIPLDVVDNQTEKLDTNITEVDAASVYTLPAGADFLMCYSVAEGYYSHRETVNGSWYIQDLCEMLGKYGSSLEFTELLTLVNRKVSQRRVDFCKDPSAIGKKQVPCFASMLTKKLHFFPKSN
B6 was tested. Which Km [6] did it give?
The Km was 220 µM.

B7: Caspase-5 (Homo sapiens), P51878 (protein)
chain: MAEDSGKKKRRKNFEAMFKGILQSGLDNFVINHMLKNNVAGQTSIQTLVPNTDQKSTSVKKDNHKKKTVKMLEYLGKDVLHGVFNYLAKHDVLTLKEEEKKKYYDTKIEDKALILVDSLRKNRVAHQMFTQTLLNMDQKITSVKPLLQIEAGPPESAESTNILKLCPREEFLRLCKKNHDEIYPIKKREDRRRLALIICNTKFDHLPARNGAHYDIVGMKRLLQGLGYTVVDEKNLTARDMESVLRAFAARPEHKSSDSTFLVLMSHGILEGICGTAHKKKKPDVLLYDTIFQIFNNRNCLSLKDKPKVIIVQACRGEKHGELWVRDSPASLALISSQSSENLEADSVCKIHEEKDFIAFCSSTPHNVSWRDRTRGSIFITELITCFQKYSCCCHLMEIFRKVQKSFEVPQAKAQMPTIERATLTRDFYLFPGN
With B7 as the protein, how does the Km [7] read?
The Km was 2500 µM.

B8: Caspase-8 (Homo sapiens), Q14790 (protein)
chain: MDFSRNLYDIGEQLDSEDLASLKFLSLDYIPQRKQEPIKDALMLFQRLQEKRMLEESNLSFLKELLFRINRLDLLITYLNTRKEEMERELQTPGRAQISAYRVMLYQISEEVSRSELRSFKFLLQEEISKCKLDDDMNLLDIFIEMEKRVILGEGKLDILKRVCAQINKSLLKIINDYEEFSKERSSSLEGSPDEFSNGEELCGVMTISDSPREQDSESQTLDKVYQMKSKPRGYCLIINNHNFAKAREKVPKLHSIRDRNGTHLDAGALTTTFEELHFEIKPHDDCTVEQIYEILKIYQLMDHSNMDCFICCILSHGDKGIIYGTDGQEAPIYELTSQFTGLKCPSLAGKPKVFFIQACQGDNYQKGIPVETDSEEQPYLEMDLSSPQTRYIPDEADFLLGMATVNNCVSYRNPAEGTWYIQSLCQSLRERCPRGDDILTILTEVNYEVSNKDDKKNMGKQMPQPTFTLRKKLVFPSD
For B8, which Km [8] is on record?
Its Km is 140 µM.
